We go through six substances from US20250320281A1.

What all share (experiment): cell-based or functional assay
In assay [1] the target is envelope protein of aMLV pseudovirus (negative control).
Assay [2] deals with HIV-1 Env of isolate MGRM-D-005 (clade D pseudovirus) (HIV-1).
Assay [3] concerns the target HIV-1 92BR020 envelope glycoprotein (Env) on pseudovirus (HIV-1).
In assay [4] the target is HIV-1 Env of pseudovirus MGRM-G-009 (clade G) (HIV-1).
Assay [5] deals with HIV-1 Env of pseudovirus JRFL (HIV-1).
Assay [6] deals with HIV-1 Env of isolate MGRM-D-018 (clade D pseudovirus) (HIV-1).
The target of assay [7] is HIV-1 Env of pseudovirus MGRM-Chronic-B-023 (HIV-1).
Assay [8] deals with HIV-1 92UG024 envelope glycoprotein (Env) on pseudovirus (HIV-1).
Assay [9] has as its target HIV-1 Env of pseudovirus MGRM-G-016 (HIV-1, clade G isolate MGRM-G-016).
The target in assay [10] is HIV-1 Env of isolate LAVI_C22 (HIV-1).
Assay [11] addresses HIV-1 Env of pseudovirus MGRM-Chronic-B-024 (HIV-1).
Assay [12] deals with HIV-1 Env of pseudovirus MGRM-AE-007 (clade CRF01_AE) (HIV-1).
For assay [13], the target named is HIV-1 IAVI-C3 envelope glycoprotein (Env) on pseudovirus (HIV-1).
Assay [14] deals with HIV-1 Env of pseudovirus MGRM-G-001 (clade G) (HIV-1).

Chain of 1443_C16 (PG16) (TCN-116) (antibody) (VH): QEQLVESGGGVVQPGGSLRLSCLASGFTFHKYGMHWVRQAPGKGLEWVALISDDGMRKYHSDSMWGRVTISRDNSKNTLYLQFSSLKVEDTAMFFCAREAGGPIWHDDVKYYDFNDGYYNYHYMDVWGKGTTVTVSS
Chain of 1443_C16 (PG16) (TCN-116) (antibody) (VL): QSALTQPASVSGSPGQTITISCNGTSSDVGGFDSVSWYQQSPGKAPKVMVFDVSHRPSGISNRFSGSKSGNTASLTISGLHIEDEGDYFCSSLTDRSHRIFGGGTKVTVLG

By IC50 is commonly meant the concentration that gives 50% inhibition. Turning to 2F5 (antibody), the IC50 (µg/ml), pseudovirus neutralization in assay [1] was greater than 50 µg/mL; in [2], greater than 50 µg/mL; in assay [5], 3.54 µg/mL; in assay [6] it was 4.05 µg/mL; in [7], 0.1 µg/mL; in assay [9] it was 16.8 µg/mL. In addition, the IC50 (µg/ml), pseudovirus neutralization in [11] was greater than 50 µg/mL. Further, the IC50, pseudovirus neutralization was greater than 50 µg/mL in assay [3], 1.27 µg/mL in assay [8] and greater than 50 µg/mL in assay [13]. Moreover, the half-inhibitory concentration (IC50) was 7.21 µg/mL in assay [4], greater than 50 µg/mL in [10], 0.07 µg/mL in assay [12] and 4.1 µg/mL in assay [14].
For the substance 2G12 (antibody), the IC50 (µg/ml), pseudovirus neutralization in assay [1] is greater than 50 µg/mL; in assay [2], 25.7 µg/mL; in [5] it was 1.45 µg/mL; in assay [6] it was 0.12 µg/mL; in [7], 0.16 µg/mL; in assay [9], greater than 50 µg/mL. The IC50 (µg/ml), pseudovirus neutralization in assay [11] was greater than 50 µg/mL. Also, the IC50, pseudovirus neutralization is 2.26 µg/mL in assay [3], 0.59 µg/mL in assay [8] and greater than 50 µg/mL in [13]. In addition, the half-maximal inhibitory concentration (IC50) in assay [4], in assay [10], in assay [12] and in [14] was greater than 50 µg/mL throughout.
Take 4E10 (antibody): the IC50 (µg/ml), pseudovirus neutralization is greater than 50 µg/mL in assay [1]; 35.2 µg/mL in assay [2]; 18.9 µg/mL in assay [5]; 3.9 µg/mL in assay [6]; 27.9 µg/mL in assay [7]; 1.02 µg/mL in [9]. The substance also had an IC50 (µg/ml), pseudovirus neutralization in [11] of 9.19 µg/mL. Moreover, the IC50, pseudovirus neutralization was determined as 41.4 µg/mL in assay [3], 1.32 µg/mL in [8] and 5 µg/mL in [13]. The IC50 is 1.34 µg/mL in assay [4], 2.02 µg/mL in [10], 0.45 µg/mL in assay [12] and 2.04 µg/mL in assay [14].
In the case of 1443_C16 (PG16) (TCN-116) (antibody), the IC50 (µg/ml), pseudovirus neutralization in assay [1] was greater than 50 µg/mL; in assay [2], 19.7 µg/mL; in assay [5], greater than 50 µg/mL; in [6], 0.004 µg/mL; in assay [7] it was 0.13 µg/mL; in assay [9], 11.3 µg/mL. Also, the IC50 (µg/ml), pseudovirus neutralization in [11] was determined as 0.01 µg/mL. Further, the IC50, pseudovirus neutralization in [3] is greater than 50 µg/mL; in assay [8], greater than 50 µg/mL; in [13] it was 14.8 µg/mL. The half-maximal inhibitory concentration (IC50) was greater than 50 µg/mL in assay [4], 0.02 µg/mL in [10], 0.04 µg/mL in assay [12] and 0.15 µg/mL in assay [14].
As to 1495_C14 (PGC14) (antibody), the IC50 (µg/ml), pseudovirus neutralization in [1], in assay [2], in [5], in assay [6], in assay [7] and in [9] was greater than 50 µg/mL in each case. In [11], this substance showed an IC50 (µg/ml), pseudovirus neutralization greater than 50 µg/mL. Besides, the figures for the IC50, pseudovirus neutralization in assay [3], in assay [8] and in assay [13] were 0.637 µg/mL, greater than 50 µg/mL and greater than 50 µg/mL, respectively. Also, the 50% inhibitory concentration (IC50) was greater than 50 µg/mL in [4], 25 µg/mL in assay [10], greater than 50 µg/mL in [12] and greater than 50 µg/mL in assay [14].
For b12 (antibody), the IC50 (µg/ml), pseudovirus neutralization was greater than 50 µg/mL in assay [1]; greater than 50 µg/mL in [2]; 0.02 µg/mL in assay [5]; 1.39 µg/mL in [6]; greater than 50 µg/mL in assay [7]; greater than 50 µg/mL in [9]. The substance also gave an IC50 (µg/ml), pseudovirus neutralization in assay [11] greater than 50 µg/mL. Further, the IC50, pseudovirus neutralization stood at 27.5 µg/mL in [3], 49.1 µg/mL in assay [8] and 5 µg/mL in [13]. For the same substance, the IC50 was greater than 50 µg/mL in assay [4], 7.64 µg/mL in assay [10], greater than 50 µg/mL in assay [12] and greater than 50 µg/mL in [14].
